Assay results published in patent publication US20090282582A1, “ENVIRONMENTAL STRESS RESPONSIVE PROMOTER AND METHOD OF TISSUE-SPECIFIC GENE EXPRESSION USING THE SAME” (RIKEN, priority 2006, published 2009).

Tests used:
[1] = test system: Arabidopsis thaliana (columbia ecotype) plant body; test: full-length cDNA microarray analysis of gene expression levels after environmental stress application; settings: in vivo
Procedure: In this example, the gene expression levels at the time of application of various types of environmental stresses were analyzed using microarrays. Specifically, the microarrays described in Seki et al., “Monitoring the expression profiles of 7000 Arabidopsis genes under drought, cold, and high-salinity stresses using a full-length cDNA microarray,” Plant J. 31: 279-292, 2002, were used, and analysis was carried out in accordance with the method similar to the method described therein. Various types of environmental stresses were applied to a plant body under the following conditions. Specifically, low-temperature stress application was carried out by introducing a plate containing a plant body into a low-temperature chamber (4° C.). Dehydration stress application was carried out by capturing the plant body with forceps while refraining from damaging the plant body, roughly removing moisture from the plant body on a Kim Towel, placing the plant body on another plate, placing the plate in a clean bench while leaving the lid open, letting it stand for 2 hours, and then closing the lid. Salt stress application was carried out by dispensing a mixture of MS medium (containing 1% sucrose, 0.1% agar, and 1 mM luciferin) with 250 mM NaCl to the roots of the plant bodies (200 μl per plant body) using a Pipetman. ABA stress application was carried out by dispensing a mixture of MS medium (containing 1% sucrose, 0.1% agar, and 1 mM luciferin) with 100 μM ABA to the roots of the plant bodies (200 μl per plant body) using a Pipetman. As a plant body to which environmental stress is to be applied, Arabidopsis thaliana (columbia ecotype), which had been cultivated on a germination medium containing Murashige and Skoog Salt, 3% sucrose, and […] for 3 weeks, was used. Cultivation conditions were determined so as to maintain the temperature in the chamber at 22° C. with a 16-hour light period and an 8-hour dark period. Total RNA was extracted from plant bodies after environmental stress application or from plant bodies to which no environmental stress had been applied using the TRIZOL Reagent (Life Technologies), and mRNA was extracted using the mRNA isolation kit (Militenyi Biotec Auburn). In accordance with the method described in the above article, mRNA samples were reversely transcribed in the presence of Cy3 dUTP or Cy5 dUTP (Amersham Pharmacia). Microarray analysis was carried out using cDNAs obtained via reverse transcription. Data obtained via microarray analysis were analyzed using the Quantarray Version 2.0 (GSI Lumonics).

[2] = test system: transgenic Arabidopsis thaliana plant body (luciferase reporter gene); test: luciferase assay of promoter::LUC transgenic plants after environmental stress application; assay type: in vivo; settings: for Tissue allowing specific induction: summary over stress types
Procedure: Specifically, promoter regions were isolated from these genes, transgenic plants in which luciferase reporter genes were to be expressed under the control of such promoters were prepared, and tissue specificity of the promoters was inspected via luciferase assay.
In this example, DNA fragments containing promoter regions of the genes identified in Example 1 were recovered via PCR.
The nucleotide sequences of the amplified DNA fragments were determined in accordance with a conventional technique to confirm that mutagenesis, such as substitution or deletion, was not introduced thereinto. After the absence of mutagenesis was confirmed, the recovered DNA fragments were introduced into the vector for promoter analysis (i.e., a vector prepared by introducing the Gateway recombinant sequence (tradename: Gateway Vector Conversion System, Invitrogen) and the luciferase reporter gene into the pGreen vector (Plant Molecular Biology 42: 819-832, 2000)) using the Gateway recombination system to construct a recombinant vector.
The recombinant vector prepared in (1) above was introduced into a plant via Agrobacterium infection. When a gene is introduced via Agrobacterium infection, a process of infecting a plant with Agrobacterium containing a plasmid comprising the target gene construct is necessary. This process was carried out via vacuum infiltration. Specifically, a plant body of Arabidopsis thaliana that had been grown in soil comprising vermiculite and an equivalent amount of pearlite was soaked in a culture solution of Agrobacterium containing the recombinant vector prepared in (1). The resultant was placed in a desiccator, suctioned with a vacuum pump to 65 to 70 mmHg, and then allowed to stand at room temperature for 5 to 10 minutes. The pot was transferred onto a tray, covered with a wrap, and kept moistened. The wrap was removed on the following day, the plant was allowed to grow in that state, and seeds were then harvested.
Subsequently, seeds were sown on MS agar medium to which antibiotic hygromycin has been added in order to select an individual having the recombinant vector prepared in (1). Arabidopsis thaliana that had been grown in this medium was transferred to a pot and allowed to grow therein. Thus, seeds of transgenic plants to which the recombinant vector prepared in (1) has been introduced were obtained.
The seeds of the transgenic plant lineage prepared in (2) were sowed on MS agar medium. The plant body 10 days after sowing was used for luciferase assay.
At the outset, 1 mM luciferin (containing 0.01% Triton-X) was sprayed over the entire plant body 5 times. After the plant body was allowed to stand in the dark for 5 minutes, luciferase luminescence was assayed using ARGUS (assay after treatment for 0 hours). Subsequently, various types of environmental stresses were applied (see below). Low-temperature stress application was carried out by introducing a plate containing a plant body into a low-temperature chamber (4° C.). Dehydration stress application was carried out by capturing the plant body with forceps while refraining from damaging the plant body, roughly removing moisture from the plant body on a Kim Towel, placing the plant body on another plate, placing the plate in a clean bench while leaving the lid open, letting it stand for 2 hours, and then closing the lid. Salt stress application was carried out by dispensing a mixture of MS medium (containing 1% sucrose, 0.1% agar, and 1 mM luciferin) with 250 mM NaCl to the roots of the plant bodies (200 μl per plant body) using a Pipetman. ABA stress application was carried out by dispensing a mixture of MS medium (containing 1% sucrose, 0.1% agar, and 1 mM luciferin) with 100 μM ABA to the roots of the plant bodies (200 μl per plant body) using a Pipetman.
Luciferase luminescence was assayed 2, 5, and 10 hours after the above various types of environmental stresses had been applied using the ARGUS system (Hamamatsu Photonics). […]

| Molecule | Environmental stress type to which the promoter responds [1] | activity to induce gene expression ([2]; 5 hours after dehydration stress application) | Tissue in which specific induction of expression is realized ([2]; Dehydration stress) | Tissue in which specific induction of expression is realized ([2]; Dehydration stress, listed as promoter of RAFL05-18-I12) | Tissue allowing specific induction [2] | Tissue in which specific induction of expression is realized ([2]; ABA stress (100 μM ABA)) | Tissue in which specific induction of expression is realized ([2]; ABA stress (100 μM ABA), listed as promoter of RAFL06-07-B19) | Tissue in which specific induction of expression is realized ([2]; Dehydration stress, listed as promoter of RAFL06-07-B19) | tissue in which expression is induced ([2]; dehydration stress applied for 5 hours) | tissue in which expression is induced ([2]; dehydration stress applied for 10 hours) | tissue in which expression is induced ([2]; dehydration stress applied for 10 hours, listed as promoter of RAFL06-07-B19) |
| --- | --- | --- | --- | --- | --- | --- | --- | --- | --- | --- | --- |
| Promoter of RAFL05-18-I12: environmental stress responsive promoter DNA, SEQ ID NO: 2, upstream of At2g47770 (homolog of benzodiazepine receptor) (nucleic acid, listed as Arabidopsis thaliana) DNA: ACCATGGCACCTGAAATACGTAAGGATACAAGAAGAGATATCATCACTGAATTCACTAAAATCACTCCCATCATAAACAGACAAATCAAAACCAAAATATTGTTCATTAACATCGTAAATGGACAACGCTTGACAACGTCTACAAATACTTGATGAAAAGAGATAAGAAATAAGTCTTCATTTATACCACATCAGTCTTCACGTAGATGATCAAGACGATCCCCAGATTGACAATGTAGAGAACACCAAAAAGAATCTGCAAAATGTAAGAGAGTAGAATTGAGACAAATGAAGCGATGGATGGATCAAATTCCGCAGCTAATCCAAAGATAGGAGATTCAAAGAGAGGGAATTGCAAGCACCTGAGCAGGGTAGACTTCCCCTCCAGTTAAGTTCTGCACTGCAGAGTAAACATAGAGGAAACCTGCTGGATAAACCAATGGCCCTGTATCGCCTTTCAAGTTCCCATAGTCTCTCTCTCCCCCGAGAAACCCACTAACCTGCCCCAATTAGATAAATTTCACTTAAAGACTACTAGTTTACTTTGAAGAAACCACAGTTGACCATTGACACTTACCTGTGACATGTAAGCATCCCAATCGATCTTCGTGTCTGTTAAAGGCAAATGACGAAATTTGGTTTAAAACCTATGCAAATGCACATTTCGAGGGATACGCAAGCAAAAAAAAAAAGGAGGTAAATAGCTCTCACATGGAACATAGGCGATAATAAGTGCGACTAGGATTGCATCAGCAAGAATTAGCGCGAATGCGAATGGAACTGCAGGTTTTTTGAATAGATCGGATCGATTCGTCTCCTTCCCCAGCCGACGGCTACGAGAAGCTCTCAAACTCGCCGGTGATGAGGCGCCCGCCATGAAAACAGAGCAAATCGCATCAGCGTCTAGCCAACGCCGCGTAACAGACAACTACTTCCATATTACTACTCTTCTAATTAGCCCAAATTAAATGAGCCTATTGGGCTTCTTGTCTTAGTCGGTGTAGAGCCCAATTGTTGTTTTATTTTTTAATAATGCAAAAGTATTAAGCGATAAATAAATAAGCATCGCAATCGTCCCAAAACTGTGTGTATGCATCAGACATGAGCATATAGAGTAAGCACGTGTCCACACTTTTTCACAAAGTTATCTAAAAACAAAAAACAATTAATTAGCATTCGACGTGTACATATCACTCGCCACGTGTACAAGAGCCTTGGCCTTTTTGCTTCTTCTTCTTGTCTATTAATATCATCTCCTGATTATACTCTCTTTTGACCAAGCTGCTTCTTCTCCATCTATCCAACATCTCAAATCTCAGTAATCTTGTTCCTTCGATTCTGTTTTGGACGTTTGTA | Dehydration and salt | strong activity | Stem and leaf tissue and root tissue | stem and leaf tissue and root tissue | Stem and leaf tissue and root tissue |  |  |  |  |  |  |
| Promoter of RAFL06-07-B19: environmental stress responsive promoter DNA, SEQ ID NO: 4, upstream of At3g11410 (AHG3 gene) (nucleic acid, listed as Arabidopsis thaliana) DNA: CCCGAACTTAACCCAAATGCCCACCTTTAATTATTCAAAACCAAAAAAGAAGTGTTTGATGCTGAGGTTTGAACTCATCAGATACACGTAACTATTTTCCAATTTATTTTCGTTTATGTGCATTTCAGAATTTCAAGCATAAATATACTCTTATTGTTTAAACATTTCAAATTGCATGTGTGAAATAATATCAGAGTTAGAATATATGTTAATCTTCTCTTCTCCTAGATTCAGTTAGATACGTTTCTATCTTCTTTTAGGCAACATCTCTTGTACAAATAGTCTCTTTGGCAATTCAATACAATCAACCTTTTACGATATATATATTTGTTATTTCTTGTACAAATAGGATCAAAATTGTTATTTCTGAAGCAAATTTTCTTTAGTTTGGATGTCAATTATATCCTCGATTAATATGTAATCACGGAACGGATTCACGATGCGTTATTTTAGAAGCAAATTTATACTTGATAGTACGTTCAGAGGCATCGCTTTTGTACAAATTGAAGCGGGTTTGTTCAATATTTAAAATAACACAGGAAACATTCAAATGTATTATTGATGTTGCTTAGGTTTGTGAAATGATATGAACCATATCGTATATATTACTAGATTTTTCTTATATGTTTTAAGGGTAGTGGGGCTGACCTATCATTCTGTTTGGCATTACCAATCAGACTATCAGAGTATTCACCATTCAGGATTCCATAACTAGAAAAAGAAGGGGTTTACATTTTCTCATACTGTATAATTTTCTACTATCAGAGATTTTATCGATTACATTAATCTCATAGTGATTATTCTGATTTATAAAAAAGTTGACAAAATAATTAAAACCAGTATTTTATAACAAGATTGTCTCTCTCCCATGGCCATTATTTTGACCTCTGACTTATTTAAATCTTAATTAACAGCATAATACTGTATTAAGCGTATTTAAATGAAACAAAATAAAAGAAAAAAAGAACAAAACGAAAGAGTGGACCACATGCGTGTCAAGAAAGGCCGGTCGTTACCGTTAAGGTGTGTCGAACTGTGATTGGGCCACGTTAACGGCGTATCCAAAAGAAAGAAAGGGCACGTGTATAGATCTAGGAAAAAAGAAAGAATGGACGGTTTAGATTGTATCTAGGTACCAGGAAATGGAACGTCACACCAAACGGTACGTGTCGGATCCTGCCCGTTGATGCTGACGGTCAGCAACTTCCCCTTATTCATGCCCCCCTGCCCGTTAATTACGTGTAACCCTTCCATGCGAAAATCAAACCCTTTTTTTTTTTTGCGTTCTTCTTCAACTTTTCTTTTTAAATCAAACCTTTTCTTTTTAAAATCACATTGCATTTCCTAACGCTCAACAAAATCTCTCTCTACTAATATCTCTCTCTCTCTCTCTCTATTGTTGAAGAAGACTCATAATCGGAGATTGTTTGTTTTTGGTTTGCTCTGTAAATTGGAGAAGTTTTGTTAGAGATCAA | Dehydration, salt, |  | Stem and leaf tissue and root tissue*^1 |  | Stem and leaf tissue and root tissue | Root tissue | root tissue | stem and leaf tissue and root tissue | stem and leaf tissue and root tissue | leaf tissue and root tissue | lowered activity to induce gene expression in stem tissue and root tissue but to induce gene expression in leaf tissue |
